Data on one molecule can be found in paper PMC4131687.

Holding throughout (conditions): modification not given
The target of assay [1] is NaV1.7 (Rattus norvegicus), O08562.
Assay [2] has as its target NaV1.4 (Rattus norvegicus), P15390.
Assay [3] concerns the target NaV1.2 (Rattus norvegicus), P04775.

Sequence of NaV1.7 (Rattus norvegicus), O08562 (O08562 whole entry): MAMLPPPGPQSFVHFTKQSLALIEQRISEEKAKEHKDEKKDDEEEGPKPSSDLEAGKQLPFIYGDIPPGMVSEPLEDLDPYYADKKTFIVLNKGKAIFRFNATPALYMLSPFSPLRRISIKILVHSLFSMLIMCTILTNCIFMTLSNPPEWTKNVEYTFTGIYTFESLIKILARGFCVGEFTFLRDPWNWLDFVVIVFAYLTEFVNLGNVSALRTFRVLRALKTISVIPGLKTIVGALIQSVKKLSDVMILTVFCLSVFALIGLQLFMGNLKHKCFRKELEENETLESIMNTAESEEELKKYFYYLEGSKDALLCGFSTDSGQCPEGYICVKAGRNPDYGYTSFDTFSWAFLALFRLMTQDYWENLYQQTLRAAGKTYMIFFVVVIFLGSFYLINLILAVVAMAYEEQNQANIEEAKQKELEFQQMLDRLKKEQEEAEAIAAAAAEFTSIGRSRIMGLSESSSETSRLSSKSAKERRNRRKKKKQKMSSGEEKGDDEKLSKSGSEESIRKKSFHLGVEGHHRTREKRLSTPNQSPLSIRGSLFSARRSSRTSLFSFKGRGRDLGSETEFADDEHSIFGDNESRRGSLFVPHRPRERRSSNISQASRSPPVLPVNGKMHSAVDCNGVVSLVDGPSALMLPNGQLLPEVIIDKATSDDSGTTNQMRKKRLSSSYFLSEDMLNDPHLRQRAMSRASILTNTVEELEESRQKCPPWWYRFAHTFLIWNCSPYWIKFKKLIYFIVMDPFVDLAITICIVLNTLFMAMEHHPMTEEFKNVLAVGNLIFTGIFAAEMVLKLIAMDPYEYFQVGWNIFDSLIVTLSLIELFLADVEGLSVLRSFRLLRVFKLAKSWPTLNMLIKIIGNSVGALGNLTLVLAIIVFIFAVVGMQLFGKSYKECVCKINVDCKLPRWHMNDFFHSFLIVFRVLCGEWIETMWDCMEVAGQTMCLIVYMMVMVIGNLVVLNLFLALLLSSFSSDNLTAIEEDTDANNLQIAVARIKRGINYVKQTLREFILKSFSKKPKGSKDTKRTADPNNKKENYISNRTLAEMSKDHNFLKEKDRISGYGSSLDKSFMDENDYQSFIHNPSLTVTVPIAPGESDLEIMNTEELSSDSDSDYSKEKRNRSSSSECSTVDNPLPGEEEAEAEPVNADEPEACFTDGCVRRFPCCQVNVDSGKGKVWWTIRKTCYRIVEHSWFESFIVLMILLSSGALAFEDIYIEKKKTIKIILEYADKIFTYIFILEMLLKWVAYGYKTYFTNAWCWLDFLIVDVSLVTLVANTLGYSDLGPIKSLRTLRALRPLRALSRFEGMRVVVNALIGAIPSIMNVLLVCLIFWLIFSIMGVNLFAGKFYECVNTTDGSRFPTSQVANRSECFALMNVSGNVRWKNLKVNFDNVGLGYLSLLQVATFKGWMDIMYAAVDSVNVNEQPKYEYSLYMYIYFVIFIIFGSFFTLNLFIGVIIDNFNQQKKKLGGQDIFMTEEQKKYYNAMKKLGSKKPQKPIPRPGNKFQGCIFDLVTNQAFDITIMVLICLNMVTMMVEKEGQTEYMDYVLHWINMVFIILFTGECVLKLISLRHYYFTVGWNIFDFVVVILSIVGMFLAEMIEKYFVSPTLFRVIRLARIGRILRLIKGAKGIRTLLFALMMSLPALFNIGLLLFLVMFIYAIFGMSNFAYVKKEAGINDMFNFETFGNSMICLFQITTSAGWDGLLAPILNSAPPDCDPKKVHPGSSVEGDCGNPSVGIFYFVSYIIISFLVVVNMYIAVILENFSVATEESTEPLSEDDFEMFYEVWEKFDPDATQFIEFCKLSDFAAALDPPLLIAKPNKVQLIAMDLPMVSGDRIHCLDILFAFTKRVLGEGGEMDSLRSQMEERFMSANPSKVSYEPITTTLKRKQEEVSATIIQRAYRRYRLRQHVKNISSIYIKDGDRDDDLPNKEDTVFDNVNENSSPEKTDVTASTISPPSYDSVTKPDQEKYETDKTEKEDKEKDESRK
Sequence of NaV1.2 (Rattus norvegicus), P04775 (P04775 whole entry): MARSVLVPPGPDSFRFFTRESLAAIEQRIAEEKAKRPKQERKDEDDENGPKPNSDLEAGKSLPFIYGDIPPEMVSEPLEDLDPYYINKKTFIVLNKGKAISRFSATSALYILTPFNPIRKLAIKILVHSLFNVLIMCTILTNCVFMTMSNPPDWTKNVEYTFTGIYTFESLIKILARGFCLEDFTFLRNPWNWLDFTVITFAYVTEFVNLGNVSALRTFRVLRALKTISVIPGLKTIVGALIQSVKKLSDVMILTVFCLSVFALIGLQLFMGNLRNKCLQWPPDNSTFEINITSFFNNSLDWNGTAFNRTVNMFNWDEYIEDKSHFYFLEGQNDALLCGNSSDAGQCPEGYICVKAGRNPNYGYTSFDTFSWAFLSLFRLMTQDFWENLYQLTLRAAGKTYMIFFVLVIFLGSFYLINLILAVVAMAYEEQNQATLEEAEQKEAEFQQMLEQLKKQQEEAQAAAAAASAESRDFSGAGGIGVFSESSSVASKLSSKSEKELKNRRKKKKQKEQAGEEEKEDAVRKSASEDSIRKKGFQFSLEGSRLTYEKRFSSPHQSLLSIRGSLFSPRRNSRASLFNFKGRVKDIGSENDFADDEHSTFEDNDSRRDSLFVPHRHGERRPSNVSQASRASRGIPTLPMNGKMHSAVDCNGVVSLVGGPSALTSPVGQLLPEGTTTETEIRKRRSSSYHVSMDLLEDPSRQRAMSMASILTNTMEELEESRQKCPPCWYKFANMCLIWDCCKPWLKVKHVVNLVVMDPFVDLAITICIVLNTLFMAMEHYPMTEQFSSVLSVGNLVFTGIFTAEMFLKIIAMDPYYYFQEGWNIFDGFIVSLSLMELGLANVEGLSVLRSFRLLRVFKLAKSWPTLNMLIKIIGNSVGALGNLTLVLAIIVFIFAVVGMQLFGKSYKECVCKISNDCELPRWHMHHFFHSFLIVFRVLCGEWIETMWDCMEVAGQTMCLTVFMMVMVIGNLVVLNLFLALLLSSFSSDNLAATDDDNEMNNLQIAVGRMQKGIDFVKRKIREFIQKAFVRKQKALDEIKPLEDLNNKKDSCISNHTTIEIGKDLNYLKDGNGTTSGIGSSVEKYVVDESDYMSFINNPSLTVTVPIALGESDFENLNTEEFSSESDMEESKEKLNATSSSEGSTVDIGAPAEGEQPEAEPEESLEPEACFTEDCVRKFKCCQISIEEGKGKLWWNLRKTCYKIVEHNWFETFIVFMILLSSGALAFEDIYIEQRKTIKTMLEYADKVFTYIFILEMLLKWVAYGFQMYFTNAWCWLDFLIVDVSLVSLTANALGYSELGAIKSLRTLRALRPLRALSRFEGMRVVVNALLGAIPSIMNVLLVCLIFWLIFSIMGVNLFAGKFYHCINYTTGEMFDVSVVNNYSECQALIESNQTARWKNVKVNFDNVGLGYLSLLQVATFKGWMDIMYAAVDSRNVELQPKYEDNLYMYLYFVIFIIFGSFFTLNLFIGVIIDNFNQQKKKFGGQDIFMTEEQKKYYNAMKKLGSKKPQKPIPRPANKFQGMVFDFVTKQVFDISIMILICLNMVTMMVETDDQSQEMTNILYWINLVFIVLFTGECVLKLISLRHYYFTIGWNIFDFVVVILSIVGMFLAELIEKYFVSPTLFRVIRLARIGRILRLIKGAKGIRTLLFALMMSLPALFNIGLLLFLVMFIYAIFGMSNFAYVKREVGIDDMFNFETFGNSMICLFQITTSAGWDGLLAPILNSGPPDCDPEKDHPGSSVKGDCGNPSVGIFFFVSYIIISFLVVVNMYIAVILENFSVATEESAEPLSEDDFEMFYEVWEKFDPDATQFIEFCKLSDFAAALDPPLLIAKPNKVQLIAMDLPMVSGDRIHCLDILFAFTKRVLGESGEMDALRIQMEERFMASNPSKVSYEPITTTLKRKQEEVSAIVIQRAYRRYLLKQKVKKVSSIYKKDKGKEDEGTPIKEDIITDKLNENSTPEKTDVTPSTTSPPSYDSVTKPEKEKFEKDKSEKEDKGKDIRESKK

B1: μ-conotoxin KIIIA-P2, P0C195 (peptide)
chain: CCNCSSKWCRDHSRCC
Take B1: the Kd was found to be 1570 nM in assay [1], 830 nM in assay [2] and 230 nM in assay [3].
